Where two headings read alike, the source gives them in different places. Values belong to the substance of their own block, whether it stands above or below them.
What was measured:
Details in all cases: ligand
[1] = biological target: human IGF-1 receptor (human) (UniProt P08069)
[2] = biological target: human insulin receptor isoform A (human) (UniProt P06213)
[3] = biological target: human insulin receptor isoform A (human) (UniProt P06213); remark: listed apart in the source
[4] = biological target: human IGF-1 receptor (human) (UniProt P08069); remark: listed apart in the source
[5] = biological target: human insulin receptor isoform A (human) (UniProt P06213); remark: listed apart in the source
[6] = biological target: human IGF-1 receptor (human) (UniProt P08069); remark: listed apart in the source
[7] = biological target: human IGF-1 receptor (human) (UniProt P08069); remark: listed apart in the source
[8] = biological target: human insulin receptor isoform A (human) (UniProt P06213); remark: listed apart in the source
[9] = biological target: human IGF-1 receptor (human) (UniProt P08069); remark: listed apart in the source
[10] = biological target: human insulin receptor isoform A (human) (UniProt P06213); remark: listed apart in the source

UniProt P06213, sequence (P06213 other isoform, or with tags, fused parts or gaps): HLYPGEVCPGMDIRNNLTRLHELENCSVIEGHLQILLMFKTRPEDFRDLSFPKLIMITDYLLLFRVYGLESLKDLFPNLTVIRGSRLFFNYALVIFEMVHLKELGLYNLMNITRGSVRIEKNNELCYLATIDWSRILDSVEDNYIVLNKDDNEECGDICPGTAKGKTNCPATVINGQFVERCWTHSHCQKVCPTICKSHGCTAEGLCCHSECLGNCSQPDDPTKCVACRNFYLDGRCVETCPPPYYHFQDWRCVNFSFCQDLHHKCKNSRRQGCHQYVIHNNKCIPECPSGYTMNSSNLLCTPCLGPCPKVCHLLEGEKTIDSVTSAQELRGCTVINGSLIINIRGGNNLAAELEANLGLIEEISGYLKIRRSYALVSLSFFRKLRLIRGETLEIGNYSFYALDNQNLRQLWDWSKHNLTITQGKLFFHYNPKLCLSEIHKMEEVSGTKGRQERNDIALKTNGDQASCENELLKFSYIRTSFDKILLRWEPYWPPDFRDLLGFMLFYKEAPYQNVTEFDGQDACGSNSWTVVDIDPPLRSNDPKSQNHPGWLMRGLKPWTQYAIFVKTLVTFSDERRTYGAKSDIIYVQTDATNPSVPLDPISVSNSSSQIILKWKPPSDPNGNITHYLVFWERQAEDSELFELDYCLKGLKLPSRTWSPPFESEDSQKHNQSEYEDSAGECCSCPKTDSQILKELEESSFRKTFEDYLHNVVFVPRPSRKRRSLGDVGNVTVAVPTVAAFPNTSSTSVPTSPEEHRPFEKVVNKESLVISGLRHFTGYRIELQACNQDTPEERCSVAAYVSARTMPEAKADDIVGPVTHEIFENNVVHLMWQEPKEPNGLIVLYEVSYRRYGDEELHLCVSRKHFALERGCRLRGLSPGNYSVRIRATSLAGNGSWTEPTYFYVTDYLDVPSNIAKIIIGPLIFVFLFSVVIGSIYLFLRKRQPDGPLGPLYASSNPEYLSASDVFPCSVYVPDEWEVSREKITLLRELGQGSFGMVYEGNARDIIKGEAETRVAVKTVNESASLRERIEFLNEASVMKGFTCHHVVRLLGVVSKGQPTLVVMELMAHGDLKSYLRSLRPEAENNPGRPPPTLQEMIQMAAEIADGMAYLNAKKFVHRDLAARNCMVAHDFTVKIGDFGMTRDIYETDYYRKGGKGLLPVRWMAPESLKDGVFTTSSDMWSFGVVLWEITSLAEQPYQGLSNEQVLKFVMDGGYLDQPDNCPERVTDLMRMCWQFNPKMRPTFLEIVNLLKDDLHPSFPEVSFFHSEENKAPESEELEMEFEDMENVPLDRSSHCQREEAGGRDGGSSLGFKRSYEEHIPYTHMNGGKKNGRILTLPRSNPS

Kd [1]: 0.84 nM | Kd [2]: 2.7 nM
Substance: Thr-50–IGF-2 (from UniProt P01344 49-115)

Kd [3]: 2.96 nM | Kd [4]: 0.5 nM
Substance: Asp-57–IGF-2 (from UniProt P01344 49-115)

Kd [5]: 2.9 nM | Kd [6]: 1.5 nM
Substance: Val-53–IGF-2 (from UniProt P01344 49-115)

Kd [7]: 1.6 nM | Kd [8]: 2.1 nM
Substance: His-50–IGF-2 (from UniProt P01344 49-115)

Kd [9]: 1.2 nM | Kd [10]: 4.1 nM
Substance: His-53–IGF-2 (from UniProt P01344 49-115)
